Results on 26 variants are retold here after FireProtDB (doi:10.1006/jmbi.1995.0616).

B1: Subtilisin-chymotrypsin inhibitor-2A, P01053 (parent)
chain: MSSVEKKPEGVNTGAGDRHNLKTEWPELVGKSVEEAKKVILQDKPEAQIIVLPVGTIVTMEYRIDRVRLFVDKLDNIAQVPRVG

In this data set the parent is B1. Particulars: Hordeum vulgare; pH 6.25; 25 °C; GdnHCl; Fluorescence; MES 50 mM; reversible: yes; structure 2CI2; whole UniProt chain shown.

On to MSSVEKKPEGVNTGAGDRHNLKTEWPELVGKSVEEAKKVILQDKPEAQIIVAPVGTIVTMEYRIDRVRLFVDKLDNIAQVPRVG [L52A], for which the “ddG of mutation (higher = less stable)” value was 1.74 kcal/mol, the denaturant m value was 2.11 kcal/mol/M, the “denaturant midpoint (higher = more stable)” value (“denaturant midpoint” for short) amounted to 2.78 M and the unfolding free energy is 5.86 kcal/mol.

For MSSVEKKPEGVNTGAGDRHNLKTEWPELVGKSVEEAKKVILQDKPEAQIIVIPVGTIVTMEYRIDRVRLFVDKLDNIAQVPRVG [L52I], the “ddG of mutation (higher = less stable)” value amounted to 1.01 kcal/mol, the denaturant m value was 1.7 kcal/mol/M, the “denaturant midpoint” value was found to be 3.87 M and the unfolding free energy turned out to be 6.59 kcal/mol.

For the variant MSSVEKKPEGVNTGAGDRHNLKTEWPELVGKSVEEAKKVILQDKPEAQIIVVPVGTIVTMEYRIDRVRLFVDKLDNIAQVPRVG [L52V], the “ddG of mutation (higher = less stable)” value is 1.02 kcal/mol, the denaturant m value was 1.76 kcal/mol/M, the “denaturant midpoint” value stood at 3.74 M and the unfolding free energy came to 6.58 kcal/mol.

With MSSVEKKPEGVNTGAGDRHNLKTEWPELVGKSVEEAKKVIAQDKPEAQIIVLPVGTIVTMEYRIDRVRLFVDKLDNIAQVPRVG [L41A], the “ddG of mutation (higher = less stable)” value turned out to be 1.21 kcal/mol, the denaturant m value was 1.93 kcal/mol/M, the “denaturant midpoint” value is 3.32 M and the unfolding free energy was found to be 6.39 kcal/mol.

Consider MSSVEKKPEGVNTGAGDRHNLKTEWPELVGKSVEEAKKVIGQDKPEAQIIVLPVGTIVTMEYRIDRVRLFVDKLDNIAQVPRVG [L41G], for which the “ddG of mutation (higher = less stable)” value is 2.09 kcal/mol, the denaturant m value came to 1.68 kcal/mol/M, the “denaturant midpoint” value was 3.29 M and the unfolding free energy was 5.51 kcal/mol.

Consider MSSVEKKPEGVNTGAGDRHNLKTEWPELVGASVEEAKKVILQDKPEAQIIVLPVGTIVTMEYRIDRVRLFVDKLDNIAQVPRVG [K31A], for which the “ddG of mutation (higher = less stable)” value is 1.2 kcal/mol, the denaturant m value was determined as 1.52 kcal/mol/M, the “denaturant midpoint” value was found to be 4.22 M and the unfolding free energy came out at 6.4 kcal/mol.

As to MSSVEKKPEGVNTGAGDRHNLKTEWPELVGKSVEEAKKVILQDKPEAQIIVVPVGTIATMEYRIDRVRLFVDKLDNIAQVPRVG [L52V V58A], the “ddG of mutation (higher = less stable)” value is 1.93 kcal/mol, the denaturant m value was 1.86 kcal/mol/M, the “denaturant midpoint” value is 3.05 M and the unfolding free energy was 5.67 kcal/mol.

For the variant MSSVEKKPEGVNTGAGDRHNLKTEWPELVGKAVAAAKKVILQDKPEAQIIVLPVGTIVTMEYRIDRVRLFVDKLDNIAQVPRVG [S32A E34A E35A], the “ddG of mutation (higher = less stable)” value came out at 0.75 kcal/mol, the denaturant m value was found to be 2.18 kcal/mol/M, the “denaturant midpoint” value is 3.14 M and the unfolding free energy worked out at 6.85 kcal/mol.

On to MSSVEKKPEGVNTGAGDRHNLKTEWPELVGKSVEEAKKVILQDKPAAQIIVLPVGTIVTMEYRIDRVRLFVDKLDNIAQVPRVG [E46A], for which the “ddG of mutation (higher = less stable)” value came to 0.78 kcal/mol, the denaturant m value was 1.78 kcal/mol/M, the “denaturant midpoint” value came to 3.83 M and the unfolding free energy came out at 6.82 kcal/mol.

Regarding MSSVEKKPEGVNTGAGDRHNLKTEWPELVGKSVEEAKAVILQDKPEAQIIVLPVGTIVTMEYRIDRVRLFVDKLDNIAQVPRVG [K38A], the “ddG of mutation (higher = less stable)” value turned out to be 0.99 kcal/mol, the denaturant m value was 1.61 kcal/mol/M, the “denaturant midpoint” value is 4.11 M and the unfolding free energy was determined as 6.61 kcal/mol.

In the case of MSSVEKKPEGVNTGAGDRHNLKTEWPELVGKSVEEAKGVILQDKPEAQIIVLPVGTIVTMEYRIDRVRLFVDKLDNIAQVPRVG [K38G], the “ddG of mutation (higher = less stable)” value worked out at 1.58 kcal/mol, the denaturant m value came out at 1.73 kcal/mol/M, the “denaturant midpoint” value amounted to 3.49 M and the unfolding free energy worked out at 6.02 kcal/mol.

As for MSSVEKKPEGVNTGAGDRHNLKTEWPELVGKSVEEAKKVILADKPEAQIIVLPVGTIVTMEYRIDRVRLFVDKLDNIAQVPRVG [Q42A], the “ddG of mutation (higher = less stable)” value is 0.54 kcal/mol, the denaturant m value was 1.77 kcal/mol/M, the “denaturant midpoint” value came to 3.99 M and the unfolding free energy worked out at 7.06 kcal/mol.

As to MSSVEKKPEGVNTGAGDRHNLKTEWPELVGKSVEEAKKVILGDKPEAQIIVLPVGTIVTMEYRIDRVRLFVDKLDNIAQVPRVG [Q42G], the “ddG of mutation (higher = less stable)” value was 0.92 kcal/mol, the denaturant m value was found to be 1.81 kcal/mol/M, the “denaturant midpoint” value is 3.69 M and the unfolding free energy amounted to 6.68 kcal/mol.

MSSVEKKPEGVNTGAGDRHNLATEWPELVGKSVEEAKKVILQDKPEAQIIVLPVGTIVTMEYRIDRVRLFVDKLDNIAQVPRVG [K22A]: the “ddG of mutation (higher = less stable)” value is 1.04 kcal/mol, the denaturant m value is 1.77 kcal/mol/M, the “denaturant midpoint” value worked out at 3.72 M and the unfolding free energy amounted to 6.56 kcal/mol.

As for MSSVEKKPEGVNTGAGDRHNLKTEWPELVGKSVEEAKKVVLQDKPEAQIIVLPVGTIVTMEYRIDRVRLFVDKLDNIAQVPRVG [I40V], the “ddG of mutation (higher = less stable)” value stood at 0.97 kcal/mol, the denaturant m value was determined as 1.99 kcal/mol/M, the “denaturant midpoint” value amounted to 3.33 M and the unfolding free energy turned out to be 6.63 kcal/mol.

As for MSSVEKKPEGVNTGAGDRHNLKTEWPALVGKSVEEAKKVILQDKPEAQIIVLPVGTIVTMEYRIDRVRLFVDKLDNIAQVPRVG [E27A], the “ddG of mutation (higher = less stable)” value came to 1.03 kcal/mol, the denaturant m value came out at 1.75 kcal/mol/M, the “denaturant midpoint” value came to 3.76 M and the unfolding free energy came to 6.57 kcal/mol.

Turning to MSSVEKKPEGVNTGAGDRHNLKTEWPQLVGKSVEEAKKVILQDKPEAQIIVLPVGTIVTMEYRIDRVRLFVDKLDNIAQVPRVG [E27Q], the “ddG of mutation (higher = less stable)” value was 0.57 kcal/mol, the denaturant m value worked out at 1.91 kcal/mol/M, the “denaturant midpoint” value came out at 3.68 M and the unfolding free energy came to 7.03 kcal/mol.

In the case of MSSVEKKPEGVNTGAGDRHNLKTEWPELVGKSVEEAKKVILQDKPEAQIIVLAVGTIVTMEYRIDRVRLFVDKLDNIAQVPRVG [P53A], the “ddG of mutation (higher = less stable)” value was 0.58 kcal/mol, the denaturant m value stood at 1.79 kcal/mol/M, the “denaturant midpoint” value came to 3.91 M and the unfolding free energy stood at 7.02 kcal/mol.

For the variant MSSVEKKPEGVNTGAGDRHNLATEWPALVGKSVEEAKKVILQDKPEAQIIVLPVGTIVTMEYRIDRVRLFVDKLDNIAQVPRVG [K22A E27A], the “ddG of mutation (higher = less stable)” value stood at 1.17 kcal/mol, the denaturant m value turned out to be 1.87 kcal/mol/M, the “denaturant midpoint” value turned out to be 3.43 M and the unfolding free energy was determined as 6.43 kcal/mol.

In the case of MSSVEKKPEGVNTGAGDRHNLKTEWPELVGKSVEEAKKVILQDKPEAQIIVVPVGTIVTMEYRIDRVRLLVDKLDNIAQVPRVG [L52V F70L], the “ddG of mutation (higher = less stable)” value is 1.08 kcal/mol, the denaturant m value was 2.37 kcal/mol/M, the “denaturant midpoint” value amounted to 2.75 M and the unfolding free energy was 6.52 kcal/mol.

With MSSVEKKPEGVNTGAGDRHNLKTEWPELVGKSVEEAKKVILQDKPEAQIIVVPVGTIVTMEYRIDRVRLAVDKLDNIAQVPRVG [L52V F70A], the “ddG of mutation (higher = less stable)” value is 3.26 kcal/mol, the denaturant m value worked out at 1.94 kcal/mol/M, the “denaturant midpoint” value came out at 2.24 M and the unfolding free energy is 4.34 kcal/mol.

As to MSSVEKKPEGVNTGAGDRHNLKTEWPELVGKSVEEAKKVILQDKPEAQIIVLPVGTAVTMEYRIDRVRLFVDKLDNIAQVPRVG [I57A], the “ddG of mutation (higher = less stable)” value stood at 1.28 kcal/mol, the denaturant m value was found to be 1.59 kcal/mol/M, the “denaturant midpoint” value came out at 3.98 M and the unfolding free energy is 6.32 kcal/mol.

As to MSSVEKKPEGVNTGAGDRHNLKTEWPELVGKSVEEAKKVILQDKPEAQIIVAPVGTIATMEYRIDRVRLLVDKLDNIAQVPRVG [L52A V58A F70L], the “ddG of mutation (higher = less stable)” value is 3.34 kcal/mol, the denaturant m value is 1.93 kcal/mol/M, the “denaturant midpoint” value was 2.21 M and the unfolding free energy is 4.26 kcal/mol.

Turning to MSSVEKKPEGVNTGAGDRHNLKTEWPELVGKSVEEAKKVILQDKPEAQIIVAPVGTIATMEYRIDRVRLFVDKLDNIAQVPRVG [L52A V58A], the “ddG of mutation (higher = less stable)” value amounted to 2.95 kcal/mol, the denaturant m value is 1.96 kcal/mol/M, the “denaturant midpoint” value was determined as 2.37 M and the unfolding free energy was 4.65 kcal/mol.

In the case of MSSVEKKPEGVNTGAGDRHNLKTEWPELVGKSVEEAKKVILQDKPEAMIIVLPVGTIVTLEYRIDRVRLFVDKLDNIAQVPRVG [Q48M M60L], the “ddG of mutation (higher = less stable)” value was determined as 0.18 kcal/mol, the denaturant m value was 1.78 kcal/mol/M, the “denaturant midpoint” value was found to be 4.16 M and the unfolding free energy amounted to 7.42 kcal/mol.

As to MSSVEKKPEGVNTGAGDRHNLKTEWPELVGKSVEEAKKVILQDAPEAQIIVLPVGTIVTMEYRIDRVRLFVDKLDNIAQVPRVG [K44A], the “ddG of mutation (higher = less stable)” value was found to be 1.85 kcal/mol, the denaturant m value worked out at 1.57 kcal/mol/M, the “denaturant midpoint” value is 3.67 M and the unfolding free energy stood at 5.75 kcal/mol.
